# Assay results from patent US20210269772A1, “COMPOSITIONS AND METHODS RELATED TO APTAMER-BASED REVERSIBLE CELL SELECTION” (UNIVERSITY OF WASHINGTON, published 2021).
# How the values were obtained:
# [1] = target: CD8 alpha (CD8a) on CD8+ T cells / PBMC (Homo sapiens, UniProt P01732 P01732:22-235); assay: flow; apparent Kd on CD8+ T cells, 4 C, 5.5 mM Mg; binding reduced 73-77% by CD8a siRNA; conditions: label: 5'-FAM (cells); biotin (BLI)
# [2] = target: CD8 alpha (CD8a) extracellular domain (Homo sapiens, UniProt P01732 P01732:22-182); assay: BLI; 25 C, 5.5 mM Mg, tRNA, BSA, 0.01% tween-20; conditions: tags: Sino Biological; label: 5'-FAM (cells); biotin (BLI)
# CD8 alpha (CD8a) extracellular domain, sequence (P01732 22-182, one chain of several): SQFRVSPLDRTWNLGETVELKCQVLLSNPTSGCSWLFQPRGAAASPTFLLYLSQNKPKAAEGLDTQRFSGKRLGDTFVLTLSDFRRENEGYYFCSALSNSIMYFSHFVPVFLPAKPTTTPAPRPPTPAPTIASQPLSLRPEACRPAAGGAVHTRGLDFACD
# Procedure: The observed differences in binding affinity values determined by the two methods is expected. Mass transport limitations not present with BLI but present when staining cells in static wells will favor re-binding and thereby limit dissociation, improving the apparent KD of the faster dissociating A3 relative to the other aptamers.
# BLI studies were conducted on a ForteBio Octet Red96 instrument at 25° C. with sample agitation at 1000 rpm. The sample buffer used for all steps was comprised of binding buffer with 0.01% tween-20. Streptavidin-coated biosensors were loaded with 50nM biotinylated aptamer until all sensors (except for the reference) reached a capture threshold of 0.5 nm. After a 100 second rinse and baseline steps in buffer alone, sensors were exposed to a 1:3 dilution series of recombinant human CD8a protein (Sino Biological) ranging from 150nM to 5.56nM. Association with protein was monitored for 1200 sec, and dissociation was carried out for 600 second in buffer alone. Data analysis was carried out using Octet Data Analysis 9.0 software (ForteBio). Kinetic constants were calculated by conducting a global fit of the several processed association and dissociation curves from the protein dilution series to a 1:1 binding model. The quality of the fit was evaluated by the R2 and χ2 values.
# CD8 alpha (CD8a) on CD8+ T cells / PBMC, sequence (P01732 22-235, one chain of several): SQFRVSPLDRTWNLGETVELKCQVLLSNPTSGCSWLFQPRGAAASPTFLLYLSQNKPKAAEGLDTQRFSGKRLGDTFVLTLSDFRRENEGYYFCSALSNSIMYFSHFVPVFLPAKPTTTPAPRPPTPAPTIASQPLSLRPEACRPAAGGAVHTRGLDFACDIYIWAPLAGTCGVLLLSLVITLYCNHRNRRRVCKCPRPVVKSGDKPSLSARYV
binder,measurement,setting,value
A8 (ssDNA) DNA: ATCCAGAGTGACGCAGCAGCTCGATCGTATAGCCGTGACGCAGCTTGAAATGGGATCGCGTCCACAGTTTTGGACACGGTGGCTTAGT,Kd,[1],2.4 nM
A1 (ssDNA) DNA: ATCCAGAGTGACGCAGCACGCAGCACCCGTGGTAGTGTATCAGGGAGACACTACGTGATGCAGCTTGAAATGGACACGGTGGCTTAGT,Kd,[2],20.1 nM
same,Kd,[1],18.3 nM
A3 (ssDNA) DNA: ATCCAGAGTGACGCAGCAACAGAGGTGTAGAAGTACACGTGAACAAGCTTGAAATTGTCTCTGACAGAGGTGGACACGGTGGCTTAGT,Kd,[1],1.9 nM
